Substitutions are numbered along the chain they refer to.
Legend:
[1] = biological target: T1, PHF-tau (paired helical filament tau isolated from Alzheimer's disease brain) (human, UniProt P10636-8 2-441, limits assumed, hyper-phosphorylated, aggregated; sites not listed for the preparation); test: SPR ProteOn, PHF-tau capture-coupled via HT7, bivalent model; lower end of range
T1 construct: also called enriched PHF-tau; ePHF-tau
Description: (§1) Affinity matured monoclonal antibodies were tested for binding to PHF-tau isolated from Alzheimer's disease brain.
(§2) A GLC sensor chip was covalently immobilized with a mouse anti-tau antibody, HT7 (ThermoFisher, catalog# MN1000) using the vendor recommended protocol for amine-coupling chemistry (˜5000 response units, RU). The coupling buffer was 10 mM, pH 4.5 sodium acetate. PHF-tau was prepared by 2-times centrifugation at 5000×g in 5° C. for 10 min. […] After capture-coupling, the surface was activated and deactivated to generate a homogenous PHF-tau surface for antibody binding studies. The anti-tau antibodies and their Fabs (prepared in running buffer, 0.024-75 nM at 5-fold dilutions) were injected at 50 μL/min over the PHF-tau surface to measure binding. The association and dissociation profiles were monitored for 4 minutes and 2 hours, respectively. After dissociation, the sensor chip was regenerated using multiple injections of 10 mM Glycine pH 2.0 and the running buffer. A reference surface (without any PHF-tau) was used to monitor non-specific binding of the injected mAbs or Fabs. HT7 antibody was used as a positive control. The binding sensorgrams for mAbs were fit using a bivalent binding model where the apparent affinity or avidity-driven binding (KD) was reported as the ratio of off-rate and on-rate (koff/kₒₙ). […]

[2] = biological target: T1, PHF-tau (paired helical filament tau …); test: SPR ProteOn, PHF-tau capture-coupled via HT7, bivalent model; lower end of range; lower end of range
Description: as §1, §2

[3] = biological target: T2, tau phospho-peptide of the direct ELISA of Example 11; test: direct ELISA on plate-coated tau phospho-peptide (10 ng/mL), detection with HRPO-labelled anti-Fab antibody
T2 construct: also called pT217 peptide; pT212/pT217 peptide
Description: (§3) Binding to tau phospho-peptide was analysed by ELISA where peptide (10 ng/mL) was directly coated to the plate overnight. […] After incubation with antibodies, plates were washed and 50 μL per well of HRPO labelled anti-Fab antibody (Jackson Immunoresearch laboratories) (diluted 1:10000 in blocking buffer). After another washing step detection was performed with “One step” TMB (Thermo Scientific) according to the manufacturers' instructions. Plates were analysed in EnVision® 2102 Multilabel Reader (Perkin Elmer, Waltham, Mass., USA). Binding curves were generated using GraphPad Prism7.0 software.

[4] = biological target: T1, PHF-tau (paired helical filament tau …); test: SPR ProteOn, PHF-tau capture-coupled via HT7, bivalent model; upper end of range
Description: as §1, §2

[5] = biological target: T1, PHF-tau (paired helical filament tau …); test: SPR ProteOn, PHF-tau capture-coupled via HT7, bivalent model; upper end of range; upper end of range
Description: as §1, §2

[6] = biological target: T2, tau phospho-peptide of the direct ELISA …; test: direct ELISA, peptide coated
Description: as §3

[7] = biological target: T1, PHF-tau (paired helical filament tau …); test: SPR ProteOn, PHF-tau capture-coupled via HT7, bivalent model
Description: as §1
(§4) A GLC sensor chip was covalently immobilized with a mouse anti-tau antibody, HT7 (ThermoFisher, catalog# MN1000) using the vendor recommended protocol for amine-coupling chemistry (˜5000 response units, RU). The coupling buffer was 10 mM, pH 4.5 sodium acetate. PHF-tau was prepared by 2-times centrifugation at 5000×g in 5° C. for 10 min. […] After capture-coupling, the surface was activated and deactivated to generate a homogenous PHF-tau surface for antibody binding studies. The anti-tau antibodies and their Fabs (prepared in running buffer, 0.024-75 nM at 5-fold dilutions) were injected at 50 μL/min over the PHF-tau surface to measure binding. The association and dissociation profiles were monitored for 4 minutes and 2 hours, respectively. After dissociation, the sensor chip was regenerated using multiple injections of 10 mM Glycine pH 2.0 and the running buffer. A reference surface (without any PHF-tau) was used to monitor non-specific binding of the injected mAbs or Fabs. HT7 antibody was used as a positive control. The binding sensorgrams for mAbs were fit using a bivalent binding model where the apparent affinity or avidity-driven binding (KD) was reported as the ratio of off-rate and on-rate (koff/kₒₙ). A 1:1 Langmuir binding model was used for kinetics analysis of Fabs.

[8] = biological target: T1, PHF-tau (paired helical filament tau …); test: SPR ProteOn, PHF-tau on chip
Peptide-2 [9] = biological target: T3, Peptide-2 (human, phosphothreonine 212, phosphothreonine 217 (tau 2N4R numbering); short chain biotin (SCBiot) and dPEG4 at the N-terminus; amide at the C-terminus); test: SPR ProteOn, peptide captured, Fab as analyte; range of n=2; lower end of n=2 range
T3 construct: also called pT212/pT217-tau peptide (Peptide-2)
Description: (§5) A subset of HFA-PT3 monoclonal antibody variants, selected based on biophysical characterization and ELISA binding to PHF, were analyzed by Surface Plasmon Resonance (SPR) with a ProteOn XPR36 for binding to the following phosphopeptides: pT212/pT217-tau peptide (Peptide-2, SEQ ID NO: 48) and pT212-tau peptide (Peptide-8, SEQ ID NO: 54). All experiments were performed at 25° C. using PBST, pH 7.4, (Bio-Rad Cat#176-2720) as both running buffer and sample dilution buffer.
(§6) Fab/peptide binding. Biotinylated peptide was captured on a neutravidin-coated NLC biosensor chip pre-conditioned with PBST, and Fab was flowed over the surface to measure kinetic parameters. Approximately 5-10 RU of peptide was captured on the chip surface by diluting peptide to 10 ng/mL in PBST and injecting over the flow channels at 30 μL/min for 100 s. Serial dilutions of PT3 Fab (1.1 nM to 90 nM) were injected at 60 μL/min for 3 minutes (association phase), followed by 300 s of buffer only (dissociation phase).
(§7) Data were double referenced by subtraction of the interspot response, and the curves generated by the buffer only injection. The chip surface was regenerated with 0.85% phosphoric acid, followed by PBST injection before the next antibody titration injection. Data processing and analysis were performed using instrument software. The data were fit using a simple Langmuir 1:1 binding model.

Peptide-2 [10] = biological target: T3, Peptide-2; test: SPR ProteOn, peptide captured, Fab as analyte
Description: as §5, §6, §7

[11] = biological target: T1, PHF-tau (paired helical filament tau …); test: SPR ProteOn, PHF-tau capture-coupled via HT7, 1:1 model
Description: A subset of HFA-PT3 monoclonal antibodies was tested for binding to PHF-tau isolated from Alzheimer's disease brain. All interactions were studied at 25° C. using PBS pH 7.4, supplemented with 3 mM EDTA, and 0.005% Tween 20 as running or system buffer. HT7 (Pierce, catalog #MN1000), a mouse anti-tau antibody, was used as a positive control.
The interaction of anti-tau monoclonal antibodies with PHF-tau was analyzed by ProteOn using a biosensor surface prepared by capture-coupling PHF-tau using HT7 as the capture reagent. PHF-tau was prepared by 2-times centrifugation at 5000×g at 5° C. for 10 min; the supernatant from the second centrifugation was then diluted 1/40 in running buffer. To prepare the chip, HT7 was covalently immobilized to the surface of a GLC (ProteOn) sensor chip using the manufacturer's instructions for amine-coupling chemistry (˜5000 response units (RU)). The coupling buffer was 10 mM sodium acetate, pH 4.5. After HT7 immobilization, PHF-tau was injected and captured (˜300 RU) by HT7. After capture, PHF-tau was covalently immobilized to the sensor chip by activation of the chip using the manufacturer's instructions for amine-coupling chemistry. Remaining reactive sites were blocked by the injection of ethanolamine. After preparation and stabilization of the PHF-tau-modified surface and reference surface (containing no antigen), the anti-tau antibodies were diluted in the running buffer and injected in solution (0.12-75 nM in 5-fold dilutions). The association was monitored for 3 minutes (120 μL injected at 40 μL/min). The dissociation was monitored for 15 minutes. Regeneration of the sensor surface was performed using 10 mM Gly pH 2.0. The data for monoclonal antibodies were fit using a bivalent binding model where the apparent affinity (KD) was reported as the ratio of koff/kₒₙ. A Langmuir 1:1 binding model was used for kinetics analysis of Fabs.

[12] = biological target: T1, PHF-tau (paired helical filament tau …); test: as above; remark: listed apart in the source
Description: as §1, §4

Peptide-2 [13] = biological target: T3, Peptide-2; test: SPR ProteOn, peptide captured, Fab as analyte; range of n=2; upper end of n=2 range
Description: as §5, §6, §7

[14] = biological target: T2, tau phospho-peptide of the direct ELISA …; test: direct ELISA on plate-coated tau phospho-peptide, Fabs
Description: as §3

Peptide-2 [15] = biological target: T3, Peptide-2; test: SPR ProteOn, peptide captured, Fab as analyte; range of n=2
Description: as §5, §6, §7

T1 sequence (P10636 other isoform, or with tags, fused parts or gaps limits assumed): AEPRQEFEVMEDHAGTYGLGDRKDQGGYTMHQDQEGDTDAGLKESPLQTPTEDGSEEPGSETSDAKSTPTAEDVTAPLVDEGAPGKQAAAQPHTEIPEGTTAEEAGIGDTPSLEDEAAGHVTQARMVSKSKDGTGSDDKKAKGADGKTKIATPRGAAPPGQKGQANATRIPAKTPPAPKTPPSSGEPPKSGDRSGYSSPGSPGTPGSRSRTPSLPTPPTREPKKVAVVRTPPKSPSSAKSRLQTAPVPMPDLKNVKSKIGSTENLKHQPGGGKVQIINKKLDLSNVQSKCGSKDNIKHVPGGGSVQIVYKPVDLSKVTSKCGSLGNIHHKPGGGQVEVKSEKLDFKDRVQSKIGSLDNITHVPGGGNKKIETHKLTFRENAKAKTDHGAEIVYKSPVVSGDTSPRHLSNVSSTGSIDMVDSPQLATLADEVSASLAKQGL
T3 sequence (peptide, as listed by the source): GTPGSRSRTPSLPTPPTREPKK

B1: B711 (antibody, human IgG1, kappa, V domains shown)
VH: QVQLVESGGGVVQPGRSLRLSCAASGFTFTSYAMSWVRQAPGKGLEWVASITKGGNTYYADSVKGRFTISRDNSKNTLYLQMNSLRAEDTAVYYCARGWGIYGWFAYWGQVTLVTVSS
VL: DIQMTQSPSSLSASVGDRVTITCKASQDINRWLNWFQQKPGKAPKSLIYRANRLLDGVPSRFSGSGSGTDFTLTISSLQPEDFATYYCLQYDEFPLTFGQGTKLEIKR
notes: also called PT1B711
Kd [1]: 1.6 pM
koff [1]: 1.08e-05 s⁻¹
kon [2]: 5.72e+06 M⁻¹ s⁻¹
EC50 (read off the curve) [3]: ~40 pM
Kd [4]: 2.1 pM
koff [4]: 1.17e-05 s⁻¹
kon [5]: 6.61e+06 M⁻¹ s⁻¹
EC50 [6]: 70.7 pM
Kd [7]: 1.8 pM
koff [7]: 1.13e-05 s⁻¹
kon [7]: 6.17e+06 M⁻¹ s⁻¹
fold improvement in on-rate compared to the parent antibody (B296) [8]: 3 fold

B2: B324 (Fab of B296) (Fab, V domains shown)
VH: B1 VH with T30S, T52S, I101D
VL: DIQMTQSPSSLSASVGDRVTITCKASQDINRYLNWFQQKPGKAPKSLIYRANRLLDGVPSRFSGSGSGTDFTLTISSLQPEDFATYYCLQYDEFPLTFGQGTKLEIK
notes: also called M324; B296 Fab
koff (Peptide-2 [9]): 0.000161 s⁻¹
Kd (Peptide-2 [10]): 305 pM
koff (Peptide-2 [10]): 0.000174 s⁻¹
kon (Peptide-2 [10]): 610000 M⁻¹ s⁻¹
Kd [11]: 167 pM
koff [11]: 0.000136 s⁻¹
kon [11]: 816000 M⁻¹ s⁻¹
EC50 [6]: 341 pM
Kd [12]: 63.2 pM
koff [12]: 9.03e-05 s⁻¹
kon [12]: 1.43e+06 M⁻¹ s⁻¹
koff (Peptide-2 [13]): 0.000186 s⁻¹
kon (Peptide-2 [13]): 793000 M⁻¹ s⁻¹
EC50 (read off the curve) [14]: ~500 pM
Kd (Peptide-2 [15]): 234 to 376 pM
kon (Peptide-2 [15]): 427000 M⁻¹ s⁻¹
fold slower off-rate than B326 [8]: 1.7 fold
fold stronger affinity (KD) than B326 [8]: 1.3 fold
fold weaker KD than the mouse PT3 parent Fab B187 [8]: 2.5 fold
